The values below come from the supplement of paper PMC9170038.

This data set has as its system MS2 coat protein. As to the kind of experiment: apparent KD of MS2 coat protein; designed switch direction (-1 OFF switch, 1 ON switch): -1; higher = weaker reporter binding. An outline of the steps:
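The buffer was Tris-HCl pH 7.5 with KCl, MgCl2, BSA, DTT, tRNA and Tween-20. In it, SNAP-549-labelled MS2 coat protein was titrated in doubling steps from 0.7 or 1.5 nM to 3 µM over chip-bound RNA switches transcribed by stalled E. coli RNA polymerase on Illumina chips. Apparent KD is the per-design median over clusters of curve fits to normalised fluorescence.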

[1] abbreviates: Eterna round: R95, input ligand: microRNA oligo, concentration not stated.
[2] abbreviates: input ligand: microRNA oligo, concentration not stated.

Take “GGAAGGCGAGGAUAUGCAAUAAUACACUCGAAGGAGUGAUAACAUGAGGAUCACCCAUGUAGAAGGCGCGAGAA [AK-MS2ROC-r4-exclusion2-6] (Eterna round: R97, puzzle: Exclusion 2)”: the “apparent KD of MS2 coat protein” value (input ligand: FMN 200 uM) worked out at 36.1 nM and the “apparent KD of MS2 coat protein” value (input ligand: none) stood at 36.1 nM.
“GGAAGGUGAGGAUAUACUAAGCCGGAAACGGCAGGUGAGAGACAUGAGGAUCACCCAUGUAGAAGGCACGGAGA [AK-MS2ROC-r4-exclusion2-17] (Eterna round: R97, puzzle: Exclusion 2)”: the “apparent KD of MS2 coat protein” value amounted to 291 nM (input ligand: FMN 200 uM) and 85.5 nM (input ligand: none).
Consider “GGACAGGGAGGAUAUACUUGAGGAUCACCCAAGUCGUAUAAUCGAUGAACACGCCGAAGUAGAAGGCCCAAAAG [Esorgebi] (Eterna round: R97, puzzle: Exclusion 3)”, for which the “apparent KD of MS2 coat protein” value (input ligand: FMN 200 uM) was determined as 403 nM and the “apparent KD of MS2 coat protein” value (input ligand: none) worked out at 131 nM.
For “GGACAGUCAGGAUAUACAUGAGGAUCACCCAUGUUGAGAUGUGAAAGGGCGGGAGUAGGUAGAAGGGACGAGAG [JR_Exclu3_Sub040] (puzzle: Exclusion 3)”, the “apparent KD of MS2 coat protein” value under setting [1] is 23.2 nM.
On to “GGAGAGAAACAGGAUAUGGGAGGGAGGACCGGACCAGAAGGGUUGACAUGAGGAUCACCCAUGUAGAGAUCCUC [AK-MS2ROC-r4-exclusion6-6.7] (Eterna round: R97, puzzle: Exclusion 6)”, for which the “apparent KD of MS2 coat protein” value (input ligand: FMN 200 uM) was found to be 486 nM and the “apparent KD of MS2 coat protein” value (input ligand: none) worked out at 1700 nM.
On to “GGAGAGAUAUAGGAUAUGGGAGGGAGGACCGGACCAGAAGGAUAGACAUGAGGAUCACCCAUGUAGAGAUCCUC [AK-MS2ROC-r4-exclusion6-6.1] (Eterna round: R97, puzzle: Exclusion 6)”, for which the “apparent KD of MS2 coat protein” value reads like this: (input ligand: FMN 200 uM) 302 nM; (input ligand: none) 270 nM.
Consider “GGAGCGGAAGGAUAUGCUGCGGGAUUGAAUGGAAAGAAAAUACAUGAGGAUCACCCAUGUAGAAGGUCCGUGAA [Tiquxe] (puzzle: Exclusion 2)”, for which the “apparent KD of MS2 coat protein” value under setting [1] came to 17 nM.
“GGAUCACAUGUUAGGAUAUGCUGGUCCUUGGAUCAGCAGAAGGGACAUGAGGAUCACCCAUGUCAUGAAGAUCC [Eli bmx4 4.81] (Eterna round: R97, puzzle: Brourd's mod of Exclusion 4)”: the “apparent KD of MS2 coat protein” value reads like this: (input ligand: FMN 200 uM) 52.8 nM; (input ligand: none) 24.1 nM.
For “GGAUCGAAUGUCAGGAUAUACCACUGGAUACAGUGGUAGAAGGGACAUGAGGAUCACCCAUGUGUUAUCGAUCC [Fiskers BMX 4 - 56] (puzzle: Brourd's mod of Exclusion 4)”, the “apparent KD of MS2 coat protein” value under setting [1] stood at 36.5 nM.
“GGAUCGAAUGUGAGGAUAUACCUAUGGAAACAUAGGUAGAAGGCACAUGAGGAUCACCCAUGUCCAAACGGUCC [Mat - Exclusion 4 - Eli Mod - D13] (Eterna round: R97, puzzle: Brourd's mod of Exclusion 4)”: the “apparent KD of MS2 coat protein” value was determined as 1050 nM (input ligand: FMN 200 uM) and 225 nM (input ligand: none).
The matching figures for “GGAUCGAAUGUGAGGAUAUGCAGGUCCUUGGAUCUGCAGAAGGCACAUGAGGAUCACCCAUGUGAUCAAGAUCC [Mat - Exclusion 4 - Eli Mod - D48] (Eterna round: R97, puzzle: Brourd's mod of Exclusion 4)”: 63 nM and 772 nM.
Take “GGAUCGAAUGUGAGGAUAUGCUGGUCCUUGGAUCAGCAGAAGGCACAUGAGGAUCACCCAUGUGAUAUCGAUCC [Eli bmx4 4.71] (Eterna round: R97, puzzle: Brourd's mod of Exclusion 4)”: the “apparent KD of MS2 coat protein” value is, setting by setting: (input ligand: FMN 200 uM) 443 nM; (input ligand: none) 89.2 nM.
Take “GGAUCGAGUGUGAGGAUAUACCACUGGAUACAGUGGUAGAAGGCACAUGAGGAUCACCCAUGUCCCUACGAUCC [Fiskers BMX 4 - 45] (puzzle: Brourd's mod of Exclusion 4)”: the “apparent KD of MS2 coat protein” value under setting [1] came to 28.2 nM.
As to “GGAUCUACUGAGGAUAUUACAUCACCCGAUUGAUAAGAAGGCAGAACAUGAGGAUCACCCAUGUGGGUAGCCAA [Polaris] (Eterna round: R97, puzzle: Exclusion 6)”, the “apparent KD of MS2 coat protein” value by setting is: (input ligand: FMN 200 uM) 36.9 nM; (input ligand: none) 21 nM.
For the sequence “GGCACACAUGAGGAUCACCCAUGUGAGGAUAUUAGGCGAUCGUCGAAAGACGAUAGCCUGAGAAGGCACAUGCC [Eli x1 4.12] (Eterna round: R97, puzzle: Exclusion 1)”, the “apparent KD of MS2 coat protein” value by setting is: (input ligand: FMN 200 uM) 92.2 nM; (input ligand: none) 19.8 nM.
For “GGCAUCGGAGGAUAUACUUAAGGUGAUGUUCGAAGCUUUCUACUUGAGGAUCACCCAAGUAGAAGGCCGAUGCC [jl-ex2.4.77 ViennaUCT mod] (Eterna round: R97, puzzle: Exclusion 2)”, the “apparent KD of MS2 coat protein” value is 7.63 nM (input ligand: FMN 200 uM) and 19.6 nM (input ligand: none).
On to “GGCCCGGGAGGAUAUACAAUGGGCUCGGGAAAUCGGGCUCGACAUGAGGAUCACCCAUGUAGAAGGCCCGGGCC [-36.5, -34.6 kcal A 24%, 4,0] (Eterna round: R97, puzzle: Exclusion 2)”, for which the “apparent KD of MS2 coat protein” value (input ligand: FMN 200 uM) amounted to 34 nM and the “apparent KD of MS2 coat protein” value (input ligand: none) came out at 21.8 nM.
With “GGCCCGGGAGGAUAUACAUGAGGAUCACCCAUGUAGCCCGGCCCGAUCGGGCCGGGCUGUAGAAGGCCCGGGCC [-49.2, -46.3 kcal, 19% A] (Eterna round: R97, puzzle: Exclusion 3)”, the “apparent KD of MS2 coat protein” value runs as follows: (input ligand: FMN 200 uM) 16.9 nM; (input ligand: none) 13 nM.
As to “GGCCCUAAGGUCAGAUCCACAAGCUUUUUGCUCGUUUUAACAUGAGGAUCACCCAUGUCUAGUGGAUCUGAUCCUCU [Sensor v3, turn-off variant 2 (MOD of Indiso v.4)] (puzzle: Sensor v3, turn-off variant 2)”, the “apparent KD of MS2 coat protein” value by setting is: (Eterna round: R95, input ligand: FMN 200 uM) 25.2 nM; under setting [1], 15.4 nM; (Eterna round: R95, input ligand: none) 21.6 nM.
As for “GGCCGUAAUAAGGAUAUCACUAGCCUCGGCUAGUGAGAAGGUAUUACAUGAGGAUCACCCAUGUGAUCAGGCCA [E6/3-B2] (Eterna round: R97, puzzle: Exclusion 6)”, the “apparent KD of MS2 coat protein” value runs as follows: (input ligand: FMN 200 uM) 862 nM; (input ligand: none) 160 nM.
As for “GGCCGUUUUCGGCCCGGGCGGGCCACAUGAGGAUCACCCAUGUAGGAUAUCGCCGGGUUUCCCGGCGAGAAGGGCAGGGCCCGC [first try] (Eterna round: R96, puzzle: Exclusion NG 3)”, the “apparent KD of MS2 coat protein” value worked out at 13.4 nM (input ligand: FMN 200 uM), 13.7 nM under setting [2] and 17.5 nM (input ligand: none).
As for “GGCGUGUCGCGAGGAUAUUCAAACGGACAUGAGGAUCACCCAUGUGAAAGGAAUGUCGAGGUUAUGGAGAAGGCGUUCACGCCG [Qubizace] (Eterna round: R96, puzzle: Exclusion NG 2)”, the “apparent KD of MS2 coat protein” value is, setting by setting: (input ligand: FMN 200 uM) 549 nM; under setting [2], 92 nM; (input ligand: none) 153 nM.
As for “GGCUUCUGAGGAUAUUAACACCGUUACAUGAGGAUCACCCAUGUUCCUCACGCUACGGCUUAAGAAGGCAGAUGAA [Eternabot (Original) Solution 32] (Eterna round: R97, puzzle: Exclusion 5)”, the “apparent KD of MS2 coat protein” value reads like this: (input ligand: FMN 200 uM) 29.6 nM; (input ligand: none) 64.9 nM.
Regarding “GGGAAGAACCAACAAGUAGACAUGAGGAUCACCCAUGUAGACUUCAUGUGCACGCAAAGCGUGCAAGCUCGUCUUAU [AK-miRNA-r3-14.4] (Eterna round: R97, puzzle: Sensor, turn-off variant 1)”, the “apparent KD of MS2 coat protein” value reads like this: (input ligand: FMN 200 uM) 22.9 nM; (input ligand: none) 19.8 nM.
As for “GGGCCCGGAGGAUAUACAAUCCCGGGUUGAAAGGCCCGGGUACAUGAGGAUCACCCAUGUAGAAGGCCGGGCCC [-42.3, -39.6 kcal A 24%, 5c bis,0] (Eterna round: R97, puzzle: Exclusion 2)”, the “apparent KD of MS2 coat protein” value runs as follows: (input ligand: FMN 200 uM) 20.9 nM; (input ligand: none) 13.8 nM.
As for “GGGCCCGGAGGAUAUACAUGAGGAUCACCCAUGUAGGGCUCGGGUAUUCUCGGGCUCUGUAGAAGGCCGGGCCC [-39.6, -36.7 kcal, A 19%, 5,0] (Eterna round: R97, puzzle: Exclusion 3)”, the “apparent KD of MS2 coat protein” value was determined as 17.5 nM (input ligand: FMN 200 uM) and 18.6 nM (input ligand: none).
With “GGGCCCGGUGUGAGGAUAUGUUUGGGUAAACCCGGGCAGAAGGCACAUGAGGAUCACCCAUGUAAGCCGGGCCC [-37.5, -35.4 kcal, A 23%, 5bbis-0] (Eterna round: R97, puzzle: Brourd's mod of Exclusion 4)”, the “apparent KD of MS2 coat protein” value by setting is: (input ligand: FMN 200 uM) 14.7 nM; (input ligand: none) 19.2 nM.
Consider “GGGUAGGGAGGAUAUCCAAUAUAUGACAUGAGGAUCACCCAUGUUUCCACUCGUACCUCCGGAGAAGGCCCAUCCC [Ex5 #14] (Eterna round: R97, puzzle: Exclusion 5)”, for which the “apparent KD of MS2 coat protein” value (input ligand: FMN 200 uM) came to 25.6 nM and the “apparent KD of MS2 coat protein” value (input ligand: none) was found to be 21.4 nM.
With “GGGUAGUGAGGAUAUACAUGAGGAUCACCCAUGUUUGCGACACUGGAGGCGUCUCUAUGUAGAAGGCGCGGCCG [EX3 B.16] (Eterna round: R97, puzzle: Exclusion 3)”, the “apparent KD of MS2 coat protein” value (input ligand: FMN 200 uM) turned out to be 30.4 nM and the “apparent KD of MS2 coat protein” value (input ligand: none) amounted to 18.9 nM.
Regarding “GGGUCACAUGAGGAUCACCCAUGUGAGGAUAUGAUACUAUGUACUUCGGUACAUAGUAUCAGAAGGCACAUCCC [Ex1-3: 17] (puzzle: Exclusion 1)”, the “apparent KD of MS2 coat protein” value under setting [1] was found to be 18.6 nM.
Consider “GGGUGACAGUUAGGAUAUCUUAGCACGCCGUAGAGAGAAGGGACAUGAGGAUCACCCAUGUUGUAGUGCCUCAAACACUGCUAG [Beintitian] (Eterna round: R96, puzzle: Exclusion NG 1)”, for which the “apparent KD of MS2 coat protein” value turned out to be 45.7 nM (input ligand: FMN 200 uM), 31.9 nM under setting [2] and 48.3 nM (input ligand: none).
On to “GGGUGACAUGAGGAUCACCCAUGUGAGGAUAUCUGGAUACUCUUUAUUUUAGAUAUCCAGAGAAGGCACACCCU [Ex1-3: 6Z] (puzzle: Exclusion 1)”, for which the “apparent KD of MS2 coat protein” value under setting [1] was determined as 356 nM.
